± gives the standard error. For part of these data: This sample holds only a part of the variants without activity.
B1: glmS ribozyme (parent)
chain: AUAAAAGCGCCAGAACUACAGAAAUGUAGUUGACGAGGAGGAGGUUUAUCGAAUUUUCGGCGGAUGCCUCCAAA

How the values were obtained:
Settings in all cases: with glucosamine-6-phosphate
glucosamine-6-phosphate [1] = variants of: B1; assay: kcat; higher = faster cleavage; RNA array
Procedure, shortened: (§1)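 kcat and KM were obtained from weighted Michaelis–Menten fits across concentrations of kobs values. Those came from one- or two-exponential decay fits to per-tile medians normalised to baseline and to non-cleaving reference variants. The variants were barcoded ribozymes transcribed in situ by E. coli RNA polymerase on sequenced MiSeq chips and tracked through a hybridised Cy3 probe at 37 °C, with 40 μM to 10 mM glucosamine-6-phosphate in HEPES/KCl/Mg(OAc)2 buffer flowed in.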

glucosamine-6-phosphate [2] = variants of: B1; assay: self-cleavage kobs at 160 uM GlcN6P; higher = faster cleavage; RNA array
Procedure, shortened: as §1

glucosamine-6-phosphate [3] = variants of: B1; assay: KM; higher = weaker cofactor use; RNA array
Procedure, shortened: as §1

glucosamine-6-phosphate [4] = variants of: B1; assay: self-cleavage kobs at 640 uM GlcN6P; higher = faster cleavage; RNA array
Procedure, shortened: as §1

glucosamine-6-phosphate [5] = variants of: B1; assay: self-cleavage kobs at 2500 uM GlcN6P; higher = faster cleavage; RNA array
Procedure, shortened: as §1

glucosamine-6-phosphate [6] = variants of: B1; assay: self-cleavage kobs at 10000 uM GlcN6P; higher = faster cleavage; RNA array
Procedure, shortened: as §1

glucosamine-6-phosphate [7] = variants of: B1; assay: self-cleavage kobs at 40 uM GlcN6P; higher = faster cleavage; RNA array
Procedure, shortened: as §1

G13U A48U
kcat (glucosamine-6-phosphate [1]): < 1e-05 s⁻¹
self-cleavage kobs at 160 uM GlcN6P (glucosamine-6-phosphate [2]): < 1e-05 s⁻¹

C16G G66U
kcat (glucosamine-6-phosphate [1]): 0.000189 ± 5.3e-06 s⁻¹
KM (glucosamine-6-phosphate [3]): 2380 ± 200 µM
self-cleavage kobs at 640 uM GlcN6P (glucosamine-6-phosphate [4]): 3.85e-05 ± 1.1e-05 s⁻¹
self-cleavage kobs at 2500 uM GlcN6P (glucosamine-6-phosphate [5]): 9.99e-05 ± 1.6e-05 s⁻¹
self-cleavage kobs at 10000 uM GlcN6P (glucosamine-6-phosphate [6]): 0.000152 ± 1.3e-05 s⁻¹

A6U G35U G38C A53U A64G
kcat (glucosamine-6-phosphate [1]): < 1e-05 s⁻¹
self-cleavage kobs at 160 uM GlcN6P (glucosamine-6-phosphate [2]): < 1e-05 s⁻¹

G59A C70G
kcat (glucosamine-6-phosphate [1]): 2.32e-05 ± 4.8e-06 s⁻¹
self-cleavage kobs at 640 uM GlcN6P (glucosamine-6-phosphate [4]): 2.83e-05 ± 1.3e-05 s⁻¹

A12C C50A U56A
kcat (glucosamine-6-phosphate [1]): < 1e-05 s⁻¹
self-cleavage kobs at 640 uM GlcN6P (glucosamine-6-phosphate [4]): < 1e-05 s⁻¹

U49G A64U
kcat (glucosamine-6-phosphate [1]): 1.18e-05 ± 9.4e-07 s⁻¹
self-cleavage kobs at 40 uM GlcN6P (glucosamine-6-phosphate [7]): < 1e-05 s⁻¹
self-cleavage kobs at 160 uM GlcN6P (glucosamine-6-phosphate [2]): < 1e-05 s⁻¹

A42G A53C
kcat (glucosamine-6-phosphate [1]): 0.00933 ± 0.0027 s⁻¹
KM (glucosamine-6-phosphate [3]): 1540 ± 610 µM
self-cleavage kobs at 40 uM GlcN6P (glucosamine-6-phosphate [7]): 0.000286 ± 5.1e-05 s⁻¹
self-cleavage kobs at 160 uM GlcN6P (glucosamine-6-phosphate [2]): 0.000666 ± 0.00018 s⁻¹
self-cleavage kobs at 640 uM GlcN6P (glucosamine-6-phosphate [4]): 0.00271 ± 0.00065 s⁻¹
self-cleavage kobs at 2500 uM GlcN6P (glucosamine-6-phosphate [5]): 0.0112 ± 0.0032 s⁻¹
self-cleavage kobs at 10000 uM GlcN6P (glucosamine-6-phosphate [6]): 0.0076 ± 0.0015 s⁻¹

A48G U65A
kcat (glucosamine-6-phosphate [1]): < 1e-05 s⁻¹
self-cleavage kobs at 160 uM GlcN6P (glucosamine-6-phosphate [2]): < 1e-05 s⁻¹

G13A G21U G37U C70U
kcat (glucosamine-6-phosphate [1]): < 1e-05 s⁻¹
self-cleavage kobs at 2500 uM GlcN6P (glucosamine-6-phosphate [5]): < 1e-05 s⁻¹

G29C A48U U69G
kcat (glucosamine-6-phosphate [1]): 6.26e-05 ± 2.1e-05 s⁻¹
self-cleavage kobs at 640 uM GlcN6P (glucosamine-6-phosphate [4]): 5.01e-05 ± 2.1e-05 s⁻¹
self-cleavage kobs at 2500 uM GlcN6P (glucosamine-6-phosphate [5]): 7.04e-05 ± 3e-05 s⁻¹

A64U C67G
kcat (glucosamine-6-phosphate [1]): < 1e-05 s⁻¹
self-cleavage kobs at 40 uM GlcN6P (glucosamine-6-phosphate [7]): < 1e-05 s⁻¹
self-cleavage kobs at 640 uM GlcN6P (glucosamine-6-phosphate [4]): < 1e-05 s⁻¹

C10U A64G
kcat (glucosamine-6-phosphate [1]): 3.72e-05 ± 4.4e-06 s⁻¹
self-cleavage kobs at 2500 uM GlcN6P (glucosamine-6-phosphate [5]): 3.75e-05 ± 5.1e-06 s⁻¹
self-cleavage kobs at 10000 uM GlcN6P (glucosamine-6-phosphate [6]): 3.21e-05 ± 5.8e-06 s⁻¹

G32C U47G
kcat (glucosamine-6-phosphate [1]): 1.21e-05 ± 1.1e-07 s⁻¹
KM (glucosamine-6-phosphate [3]): 403 ± 39 µM

G41C U46A
kcat (glucosamine-6-phosphate [1]): 0.00012 ± 1.2e-05 s⁻¹
KM (glucosamine-6-phosphate [3]): 3110 ± 830 µM
self-cleavage kobs at 2500 uM GlcN6P (glucosamine-6-phosphate [5]): 5.8e-05 ± 1.3e-05 s⁻¹
self-cleavage kobs at 10000 uM GlcN6P (glucosamine-6-phosphate [6]): 9.03e-05 ± 1.3e-05 s⁻¹

G44A U55G
kcat (glucosamine-6-phosphate [1]): 0.000367 ± 0.00015 s⁻¹
self-cleavage kobs at 640 uM GlcN6P (glucosamine-6-phosphate [4]): 0.000141 ± 3.3e-05 s⁻¹
self-cleavage kobs at 2500 uM GlcN6P (glucosamine-6-phosphate [5]): 0.000228 ± 4.2e-05 s⁻¹

A12C A64G
kcat (glucosamine-6-phosphate [1]): 0.000378 ± 6.7e-05 s⁻¹
KM (glucosamine-6-phosphate [3]): 1600 ± 500 µM
self-cleavage kobs at 640 uM GlcN6P (glucosamine-6-phosphate [4]): 0.000111 ± 1.5e-05 s⁻¹
self-cleavage kobs at 2500 uM GlcN6P (glucosamine-6-phosphate [5]): 0.000209 ± 3.2e-05 s⁻¹
self-cleavage kobs at 10000 uM GlcN6P (glucosamine-6-phosphate [6]): 0.000415 ± 0.0001 s⁻¹

A36C A64U
kcat (glucosamine-6-phosphate [1]): 1.13e-05 ± 3.6e-06 s⁻¹
self-cleavage kobs at 40 uM GlcN6P (glucosamine-6-phosphate [7]): < 1e-05 s⁻¹
self-cleavage kobs at 640 uM GlcN6P (glucosamine-6-phosphate [4]): < 1e-05 s⁻¹

A48G C68U
kcat (glucosamine-6-phosphate [1]): 0.000161 ± 4.8e-05 s⁻¹
self-cleavage kobs at 160 uM GlcN6P (glucosamine-6-phosphate [2]): < 1e-05 s⁻¹
self-cleavage kobs at 10000 uM GlcN6P (glucosamine-6-phosphate [6]): 4.18e-05 ± 8.3e-06 s⁻¹

A15C A42G A53C
kcat (glucosamine-6-phosphate [1]): 0.00239 ± 0.001 s⁻¹
self-cleavage kobs at 640 uM GlcN6P (glucosamine-6-phosphate [4]): 0.000469 ± 0.00012 s⁻¹
self-cleavage kobs at 2500 uM GlcN6P (glucosamine-6-phosphate [5]): 0.000746 ± 0.00018 s⁻¹
self-cleavage kobs at 10000 uM GlcN6P (glucosamine-6-phosphate [6]): 0.00192 ± 0.00042 s⁻¹

G29C C67A
kcat (glucosamine-6-phosphate [1]): 0.000293 ± 7.2e-05 s⁻¹
self-cleavage kobs at 160 uM GlcN6P (glucosamine-6-phosphate [2]): 5.79e-05 ± 1.3e-05 s⁻¹
self-cleavage kobs at 640 uM GlcN6P (glucosamine-6-phosphate [4]): 0.000128 ± 1.9e-05 s⁻¹
self-cleavage kobs at 2500 uM GlcN6P (glucosamine-6-phosphate [5]): 0.000163 ± 3.2e-05 s⁻¹
self-cleavage kobs at 10000 uM GlcN6P (glucosamine-6-phosphate [6]): 0.000363 ± 5.2e-05 s⁻¹

G37A U49G
kcat (glucosamine-6-phosphate [1]): 7.59e-05 ± 1.4e-05 s⁻¹
self-cleavage kobs at 2500 uM GlcN6P (glucosamine-6-phosphate [5]): 4.94e-05 ± 1.8e-05 s⁻¹
self-cleavage kobs at 10000 uM GlcN6P (glucosamine-6-phosphate [6]): 6.04e-05 ± 1.3e-05 s⁻¹

U54C C61U
kcat (glucosamine-6-phosphate [1]): 2.59e-05 ± 2.6e-06 s⁻¹
